Experimental data published in the supplement of paper PMC9112550, “Optimization of the antimicrobial peptide Bac7 by deep mutational scanning” (BMC Biology, 2022).

Test system: Escherichia coli TOP10
Assay: shrunken log2 fold change of peptide-encoding DNA abundance (4.5 h post-induction vs induction); higher = less antimicrobial activity (less host growth inhibition)
Conditions: time post-induction: 4.5 h; library: site-saturation at positions 5, 18, 19, 20
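Note: peptides expressed intracellularly from a pBAD plasmid library in pooled LB shake-flask culture, induced with 0.3% L-arabinose, DNA abundance read by NGS, three biological replicates, DESeq2 with apeglm shrinkage.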

RRIRSRPPRLPRPRPRPFYMPRP
shrunken log2 fold change: -0.561

RRIRSRPPRLPRPRPRPGADPRP
shrunken log2 fold change: 0.463

RRIRSRPPRLPRPRPRPGDSPRP
shrunken log2 fold change: -0.0926

RRIRSRPPRLPRPRPRPGEVPRP
shrunken log2 fold change: 0.223

RRIRSRPPRLPRPRPRPGFWPRP
shrunken log2 fold change: 0.654

RRIRSRPPRLPRPRPRPGGQPRP
shrunken log2 fold change: 0.279

RRIRSRPPRLPRPRPRPGHAPRP
shrunken log2 fold change: 0.205

RRIRSRPPRLPRPRPRPGHHPRP
shrunken log2 fold change: -0.0988

RRIRSRPPRLPRPRPRPGHKPRP
shrunken log2 fold change: -0.112

RRIRSRPPRLPRPRPRPGHSPRP
shrunken log2 fold change: 0.0297

RRIRSRPPRLPRPRPRPGLAPRP
shrunken log2 fold change: 0.444

RRIRSRPPRLPRPRPRPGLIPRP
shrunken log2 fold change: 0.142

RRIRSRPPRLPRPRPRPGLRPRP
shrunken log2 fold change: 0.222

RRIRSRPPRLPRPRPRPGMNPRP
shrunken log2 fold change: -0.249

RRIRSRPPRLPRPRPRPGNAPRP
shrunken log2 fold change: 0.119

RRIRSRPPRLPRPRPRPGNRPRP
shrunken log2 fold change: -0.00644

RRIRSRPPRLPRPRPRPGPAPRP
shrunken log2 fold change: 0.682

RRIRSRPPRLPRPRPRPGQAPRP
shrunken log2 fold change: 0.0166

RRIRSRPPRLPRPRPRPGTAPRP
shrunken log2 fold change: 0.33

RRIRSRPPRLPRPRPRPGTPPRP
shrunken log2 fold change: 0.0374

RRIRSRPPRLPRPRPRPGTSPRP
shrunken log2 fold change: -0.167

RRIRSRPPRLPRPRPRPGWPPRP
shrunken log2 fold change: 0.692

RRIRSRPPRLPRPRPRPGWWPRP
shrunken log2 fold change: 4.72

RRIRSRPPRLPRPRPRPGYTPRP
shrunken log2 fold change: -0.129

RRIRSRPPRLPRPRPRPHCAPRP
shrunken log2 fold change: -0.0311

RRIRSRPPRLPRPRPRPHCNPRP
shrunken log2 fold change: -0.36

RRIRSRPPRLPRPRPRPHDIPRP
shrunken log2 fold change: -0.0108

RRIRSRPPRLPRPRPRPHGVPRP
shrunken log2 fold change: 0.013

RRIRSRPPRLPRPRPRPHHIPRP
shrunken log2 fold change: -1.12

RRIRSRPPRLPRPRPRPHHQPRP
shrunken log2 fold change: -0.61

RRIRSRPPRLPRPRPRPHIPPRP
shrunken log2 fold change: -0.836

RRIRSRPPRLPRPRPRPHKEPRP
shrunken log2 fold change: -0.00927

RRIRSRPPRLPRPRPRPHLWPRP
shrunken log2 fold change: -0.0232

RRIRSRPPRLPRPRPRPHMLPRP
shrunken log2 fold change: -0.104

RRIRSRPPRLPRPRPRPHPSPRP
shrunken log2 fold change: 0.0251

RRIRSRPPRLPRPRPRPHQPPRP
shrunken log2 fold change: -0.00655

RRIRSRPPRLPRPRPRPHREPRP
shrunken log2 fold change: -0.14

RRIRSRPPRLPRPRPRPHSKPRP
shrunken log2 fold change: -0.486

RRIRSRPPRLPRPRPRPHTIPRP
shrunken log2 fold change: -0.87

RRIRSRPPRLPRPRPRPHVNPRP
shrunken log2 fold change: -0.259

RRIRSRPPRLPRPRPRPHWPPRP
shrunken log2 fold change: 0.341

RRIRSRPPRLPRPRPRPHYAPRP
shrunken log2 fold change: -0.247

RRIRSRPPRLPRPRPRPHYDPRP
shrunken log2 fold change: -0.735

RRIRSRPPRLPRPRPRPHYPPRP
shrunken log2 fold change: -0.615

RRIRSRPPRLPRPRPRPHYTPRP
shrunken log2 fold change: -0.728

RRIRSRPPRLPRPRPRPICKPRP
shrunken log2 fold change: -0.494

RRIRSRPPRLPRPRPRPIDAPRP
shrunken log2 fold change: -0.101

RRIRSRPPRLPRPRPRPIDQPRP
shrunken log2 fold change: -0.174

RRIRSRPPRLPRPRPRPIDRPRP
shrunken log2 fold change: 0.0178

RRIRSRPPRLPRPRPRPIEAPRP
shrunken log2 fold change: 0.137

RRIRSRPPRLPRPRPRPIEKPRP
shrunken log2 fold change: -0.0173

RRIRSRPPRLPRPRPRPIFYPRP
shrunken log2 fold change: -0.387

RRIRSRPPRLPRPRPRPIGNPRP
shrunken log2 fold change: -0.234

RRIRSRPPRLPRPRPRPIGTPRP
shrunken log2 fold change: -0.25

RRIRSRPPRLPRPRPRPIHRPRP
shrunken log2 fold change: -0.172

RRIRSRPPRLPRPRPRPIKDPRP
shrunken log2 fold change: -0.224

RRIRSRPPRLPRPRPRPIMNPRP
shrunken log2 fold change: -0.0954

RRIRSRPPRLPRPRPRPINKPRP
shrunken log2 fold change: -0.641

RRIRSRPPRLPRPRPRPINQPRP
shrunken log2 fold change: -0.657

RRIRSRPPRLPRPRPRPIPMPRP
shrunken log2 fold change: -0.0186

RRIRSRPPRLPRPRPRPIPWPRP
shrunken log2 fold change: -0.121

RRIRSRPPRLPRPRPRPIQNPRP
shrunken log2 fold change: -0.119

RRIRSRPPRLPRPRPRPISFPRP
shrunken log2 fold change: -0.216

RRIRSRPPRLPRPRPRPISTPRP
shrunken log2 fold change: -0.102

RRIRSRPPRLPRPRPRPITIPRP
shrunken log2 fold change: -0.324

RRIRSRPPRLPRPRPRPIVAPRP
shrunken log2 fold change: 0.0103

RRIRSRPPRLPRPRPRPIVVPRP
shrunken log2 fold change: 0.027

RRIRSRPPRLPRPRPRPIWDPRP
shrunken log2 fold change: 0.309

RRIRSRPPRLPRPRPRPIWIPRP
shrunken log2 fold change: -0.0851

RRIRSRPPRLPRPRPRPIWMPRP
shrunken log2 fold change: -0.000641

RRIRSRPPRLPRPRPRPIWWPRP
shrunken log2 fold change: 0.361

RRIRSRPPRLPRPRPRPKAHPRP
shrunken log2 fold change: 0.277

RRIRSRPPRLPRPRPRPKCRPRP
shrunken log2 fold change: 0.0128

RRIRSRPPRLPRPRPRPKDRPRP
shrunken log2 fold change: 0.201

RRIRSRPPRLPRPRPRPKEIPRP
shrunken log2 fold change: -0.0586

RRIRSRPPRLPRPRPRPKFCPRP
shrunken log2 fold change: -0.471

RRIRSRPPRLPRPRPRPKGAPRP
shrunken log2 fold change: 0.38

RRIRSRPPRLPRPRPRPKISPRP
shrunken log2 fold change: 0.0778

RRIRSRPPRLPRPRPRPKLFPRP
shrunken log2 fold change: 0.172

RRIRSRPPRLPRPRPRPKLWPRP
shrunken log2 fold change: 0.564

RRIRSRPPRLPRPRPRPKMSPRP
shrunken log2 fold change: -0.105

RRIRSRPPRLPRPRPRPKMTPRP
shrunken log2 fold change: 0.0901

RRIRSRPPRLPRPRPRPKNEPRP
shrunken log2 fold change: -0.011

RRIRSRPPRLPRPRPRPKNIPRP
shrunken log2 fold change: -0.314

RRIRSRPPRLPRPRPRPKNLPRP
shrunken log2 fold change: -0.599

RRIRSRPPRLPRPRPRPKNSPRP
shrunken log2 fold change: -0.431

RRIRSRPPRLPRPRPRPKQMPRP
shrunken log2 fold change: -0.0354

RRIRSRPPRLPRPRPRPKQTPRP
shrunken log2 fold change: -0.159

RRIRSRPPRLPRPRPRPKQWPRP
shrunken log2 fold change: 0.474

RRIRSRPPRLPRPRPRPKQYPRP
shrunken log2 fold change: -0.361

RRIRSRPPRLPRPRPRPKSEPRP
shrunken log2 fold change: 0.0504

RRIRSRPPRLPRPRPRPKSLPRP
shrunken log2 fold change: -0.0747

RRIRSRPPRLPRPRPRPKTCPRP
shrunken log2 fold change: -0.0741

RRIRSRPPRLPRPRPRPKTMPRP
shrunken log2 fold change: 0.0109

RRIRSRPPRLPRPRPRPKTTPRP
shrunken log2 fold change: 0.103

RRIRSRPPRLPRPRPRPKVEPRP
shrunken log2 fold change: 0.213

RRIRSRPPRLPRPRPRPKVIPRP
shrunken log2 fold change: -0.0209

RRIRSRPPRLPRPRPRPKVVPRP
shrunken log2 fold change: 0.00912

RRIRSRPPRLPRPRPRPKWEPRP
shrunken log2 fold change: 0.274

RRIRSRPPRLPRPRPRPKWFPRP
shrunken log2 fold change: -0.0561

RRIRSRPPRLPRPRPRPKWSPRP
shrunken log2 fold change: -0.132

RRIRSRPPRLPRPRPRPKYCPRP
shrunken log2 fold change: -0.263

RRIRSRPPRLPRPRPRPKYEPRP
shrunken log2 fold change: -0.147

RRIRSRPPRLPRPRPRPKYFPRP
shrunken log2 fold change: -0.146

RRIRSRPPRLPRPRPRPLAVPRP
shrunken log2 fold change: 0.0333

RRIRSRPPRLPRPRPRPLDCPRP
shrunken log2 fold change: -0.212

RRIRSRPPRLPRPRPRPLDFPRP
shrunken log2 fold change: -0.223

RRIRSRPPRLPRPRPRPLHEPRP
shrunken log2 fold change: 0.339

RRIRSRPPRLPRPRPRPLHFPRP
shrunken log2 fold change: -0.17
